3 molecules from paper doi:10.1101/2023.10.31.564985, “Cryo-EM structure of the Spo11 core complex bound to DNA” (bioRxiv, 2023) can be followed below.

B2: Rec102 (subunit of the purified S. cerevisiae Spo11 core complex) (natural protein)
chain: MARDITFLTVFLESCGAVNNDEAGKLLSAWTSTVRIEGPESTDSNSLYIPLLPPGMLKIKLNFKMNDRLVTEEQELFTKLREIVGSSIRFWEEQLFYQVQDVSTIENHVILSLKCTILTDAQISTFISKPRELHTHAKGYPEIYYLSELSTTVNFFSKEGNYVEISQVIPHFNEYFSSLIVSQLEFEYPMVFSMISRLRLKWQQSSLAPISYALTSNSVLLPIMLNMIAQDKSSTTAYQILCRRRGPPIQNFQIFSLPAVTYNK
notes: Rec102, S. cerevisiae; source: Sf9 cells, baculovirus coinfection with Spo11, Rec104 and Ski8; purified as the core complex (NiNTA, Anti-Flag M2, Superdex 200)

Assay [1] has as its target B2. The experiment in a line: cryo-EM structure; core complex (~0.2 mg/ml) incubated with 23-bp hairpin DNA with a two-nucleotide 5' overhang, molar ratio 1:2, 25 mM HEPES-NaOH pH 7.5, 150 mM NaCl, 5 mM MgCl2, 2 mM DTT, 2% glycerol, 1 hr on ice; 3.7 Å. To be noted: both partners purified.
Assay [2] deals with T1, Spo11 (subunit of the purified S. cerevisiae Spo11 core complex) (S. cerevisiae, UniProt P23179 1-392).
T1 construct: Spo11, S. cerevisiae; The complex was purified on NiNTA and anti-Flag resin; Surmise: the tags are on Spo11; source: Sf9 cells, baculovirus coinfection with Rec102, Rec104 and Ski8; purified as the core complex (NiNTA, Anti-Flag M2, Superdex 200)
T1 sequence: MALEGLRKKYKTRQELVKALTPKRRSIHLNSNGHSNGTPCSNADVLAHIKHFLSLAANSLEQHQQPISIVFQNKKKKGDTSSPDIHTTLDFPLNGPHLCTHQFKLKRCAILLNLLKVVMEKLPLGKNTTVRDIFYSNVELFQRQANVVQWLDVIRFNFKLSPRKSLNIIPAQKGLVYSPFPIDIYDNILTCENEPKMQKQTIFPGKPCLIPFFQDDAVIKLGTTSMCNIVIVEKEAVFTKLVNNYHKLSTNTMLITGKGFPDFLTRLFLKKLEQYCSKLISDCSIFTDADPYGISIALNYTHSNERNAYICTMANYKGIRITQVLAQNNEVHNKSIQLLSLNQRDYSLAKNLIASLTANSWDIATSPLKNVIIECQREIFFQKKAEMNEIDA
Described as above. To be noted: both partners purified.

B1: Rec104 (subunit of the purified S. cerevisiae Spo11 core complex) (natural protein)
chain: MSIEEEDTNKITCTQDFLHQYFVTERVSIQFGLNNKTVKRINKDEFDKAVNCIMSWTNYPKPGLKRTASTYLLSNSFKKSATVSLPFILGDPVCMPKRVESNNNDTCLLYSDTLYDDPLIQRNDQAGDEIEDEFSFTLLRSEVNEIRPISSSSTAQILQSDYSALMYERQASNGSIFQFSSP
notes: Rec104, S. cerevisiae; source: Sf9 cells, baculovirus coinfection with Spo11, Rec102 and Ski8; purified as the core complex (NiNTA, Anti-Flag M2, Superdex 200)
B1: the “stoichiometry N” value in assay [1] and in assay [2] was 1 throughout.

For B2, the “stoichiometry N” value in assay [2] was 1.

B3: Ski8 (subunit of the purified S. cerevisiae Spo11 core complex) (natural protein)
chain: MSKVFIATANAGKAHDADIFSVSACNSFTVSCSGDGYLKVWDNKLLDNENPKDKSYSHFVHKSGLHHVDVLQAIERDAFELCLVATTSFSGDLLFYRITREDETKKVIFEKLDLLDSDMKKHSFWALKWGASNDRLLSHRLVATDVKGTTYIWKFHPFADESNSLTLNWSPTLELQGTVESPMTPSQFATSVDISERGLIATGFNNGTVQISELSTLRPLYNFESQHSMINNSNSIRSVKFSPQGSLLAIAHDSNSFGCITLYETEFGERIGSLSVPTHSSQASLGEFAHSSWVMSLSFNDSGETLCSAGWDGKLRFWDVKTKERITTLNMHCDDIEIEEDILAVDEHGDSLAEPGVFDVKFLKKGWRSGMGADLNESLCCVCLDRSIRWFREAGGK
notes: Ski8, WD-repeat protein, S. cerevisiae; source: Sf9 cells, baculovirus coinfection with Spo11, Rec102 and Rec104; purified as the core complex (NiNTA, Anti-Flag M2, Superdex 200)
As for B3, in assay [2], the “stoichiometry N” value came out at 1.
